Experimental data as given in patent US20250145680A1 (REMD BIOTHERAPEUTICS, published 2025).
Numbering of substitutions follows the chain as printed. In names and notes the source's numbering stands. Blank lines part the entries; values can stand above or below the binder they belong to.

Target: T1, Type I IFN receptor (IFNAR) (UniProt P17181 28-557; P48551 27-515, limits assumed)
T1 sequence (looked up) 1: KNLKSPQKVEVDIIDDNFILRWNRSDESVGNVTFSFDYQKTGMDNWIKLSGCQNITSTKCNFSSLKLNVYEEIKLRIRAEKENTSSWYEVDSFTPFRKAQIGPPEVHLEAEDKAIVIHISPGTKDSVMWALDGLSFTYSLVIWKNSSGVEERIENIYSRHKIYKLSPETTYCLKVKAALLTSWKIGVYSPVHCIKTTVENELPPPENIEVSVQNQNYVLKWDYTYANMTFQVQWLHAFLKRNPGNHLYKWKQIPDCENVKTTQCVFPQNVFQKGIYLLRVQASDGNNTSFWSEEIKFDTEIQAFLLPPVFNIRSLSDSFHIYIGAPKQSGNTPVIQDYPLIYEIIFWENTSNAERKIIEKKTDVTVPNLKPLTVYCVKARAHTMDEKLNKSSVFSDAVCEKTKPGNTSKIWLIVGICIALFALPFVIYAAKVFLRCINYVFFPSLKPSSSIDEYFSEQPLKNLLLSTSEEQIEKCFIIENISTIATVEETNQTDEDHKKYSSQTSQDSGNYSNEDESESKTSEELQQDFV
T1 sequence (looked up) 2: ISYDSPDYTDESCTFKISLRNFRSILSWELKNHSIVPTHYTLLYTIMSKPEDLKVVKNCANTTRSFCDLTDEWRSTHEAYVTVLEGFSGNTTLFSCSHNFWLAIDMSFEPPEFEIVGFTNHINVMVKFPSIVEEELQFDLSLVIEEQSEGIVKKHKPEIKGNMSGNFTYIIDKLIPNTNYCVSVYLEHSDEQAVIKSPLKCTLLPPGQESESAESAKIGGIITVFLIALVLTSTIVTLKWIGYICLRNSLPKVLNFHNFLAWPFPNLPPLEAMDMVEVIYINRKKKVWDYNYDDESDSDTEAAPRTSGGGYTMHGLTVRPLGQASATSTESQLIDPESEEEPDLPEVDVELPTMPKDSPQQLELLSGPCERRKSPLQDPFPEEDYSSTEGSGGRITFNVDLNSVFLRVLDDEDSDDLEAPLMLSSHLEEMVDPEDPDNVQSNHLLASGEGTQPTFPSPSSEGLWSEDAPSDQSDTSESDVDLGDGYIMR
Experiment: cell-based or functional assay

EC50 ratio1 (EC50 of FP/EC50 of IFN-α2b) on PD-L1-negative cells; IFN-α reporter assay (SEAP), PD-L1 blocked with REMD290: 33.9 fold
B1: anti-PD-L1 Ab-con-IFN-α heterodimeric fusion molecule (FP-19), con-IFN-α (R150A), G8 linker (other)
light: DIQMTQSPSSVSASVGDRVTITCKTSQDVNTAVAWYQQKPGQAPRLLIYWASTRHTGVPDRFSGSGSGTDFTLTISSLQAEDVAVYYCQQHYNTPLTFGGGTKLEIKRTVAAPSVFIFPPSDEQLKSGTASVVCLLNNFYPREAKVQWKVDNALQSGNSQESVTEQDSKDSTYSLSSTLTLSKADYEKHKVYACEVTHQGLSSPVTKSFNRGEC
heavy 1: QMQLVQSGAEVKKTGSSVKVSCKASGYTFTSYSINWVRQAPGKGLEWVAYFYVGNGYTDYNEKFKGRVTMTRDTSTSTVYMELSSLRSEDTAVYYCARGGLPYYFDYWGQGTLVTVSSASTKGPSVFPLAPCSRSTSESTAALGCLVKDYFPEPVTVSWNSGALTSGVHTFPAVLQSSGLYSLSSVVTVPSSSLGTKTYTCNVDHKPSNTKVDKRVESKYGPPCPPCPAPEFLGGPSVFLFPPKPKDTLMISRTPEVTCVVVDVSQEDPEVQFNWYVDGVEVHNAKTKPREEQFNSTYRVVSVLTVLHQDWLNGKEYKCKVSNKGLPSSIEKTISKAKGQPREPQVCTLPPSQEEMTKNQVSLSCAVKGFYPSDIAVEWESNGQPENNYKTTPPVLDSDGSFFLVSRLTVDKSRWQEGNVFSCSVMHEALHNHYTQKSLSLSLGGGGGGGGGCDLPQTHSLGNRRALILLAQMRRISPFSCLKDRHDFGFPQEEFDGNQFQKAQAISVLHEMIQQTFNLFSTKDSSAAWDESLLEKFYTELYQQLNDLEACVIQEVGVEETPLMNVDSILAVKKYFQRITLYLTEKKYSPCAWEVVRAEIMASFSLSTNLQERLRRKE
heavy 2: QMQLVQSGAEVKKTGSSVKVSCKASGYTFTSYSINWVRQAPGKGLEWVAYFYVGNGYTDYNEKFKGRVTMTRDTSTSTVYMELSSLRSEDTAVYYCARGGLPYYFDYWGQGTLVTVSSASTKGPSVFPLAPCSRSTSESTAALGCLVKDYFPEPVTVSWNSGALTSGVHTFPAVLQSSGLYSLSSVVTVPSSSLGTKTYTCNVDHKPSNTKVDKRVESKYGPPCPPCPAPEFLGGPSVFLFPPKPKDTLMISRTPEVTCVVVDVSQEDPEVQFNWYVDGVEVHNAKTKPREEQFNSTYRVVSVLTVLHQDWLNGKEYKCKVSNKGLPSSIEKTISKAKGQPREPQVYTLPPCQEEMTKNQVSLWCLVKGFYPSDIAVEWESNGQPENNYKTTPPVLDSDGSFFLYSRLTVDKSRWQEGNVFSCSVMHEALHNHYTQKSLSLSLG

EC50 ratio1 (EC50 of FP/EC50 of IFN-α2b) on PD-L1-negative cells; IFN-α reporter assay (SEAP), PD-L1 blocked with REMD290: 1140 fold
B2: anti-PD-L1 Ab-con-IFN-α heterodimeric fusion molecule (FP-20), con-IFN-α (A146D and R150A), G8 linker (other)
light: B1 light
heavy 1: B1 heavy 1 with A598D
heavy 2: B1 heavy 2
